Measurements as given in US20150344570A1 (published 2015).

T1: FcγRIIb extracellular domain with C-terminal His tag (human, UniProt P31994 43-217)
T1 construct: extracellular domain; also called FcgRIIb; 2b; not shown: His tag at the C terminus
T1 sequence (looked up): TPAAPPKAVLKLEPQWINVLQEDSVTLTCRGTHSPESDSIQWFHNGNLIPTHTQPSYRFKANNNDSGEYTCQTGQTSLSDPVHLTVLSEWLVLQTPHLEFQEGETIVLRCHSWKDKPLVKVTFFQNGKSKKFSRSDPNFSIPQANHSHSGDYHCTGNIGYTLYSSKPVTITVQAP

B1: GpH7-A5/GpH7-B3 variant L328_05P/GpL16-k0 (antibody, human IgG1, kappa)
heavy 1: not shown
heavy 2: not shown
light: DIVMTQSPLSLPVTPGEPASISCQASESLVHSNRNTYLHWYLQKPGQSPQLLIYKVSNRFSGVPDRFSGSGSGTDFTLKISRVEAEDVGVYYCSQNTHVPPTFGQGTKVEIERTVAAPSVFIFPPSDEQLKSGTASVVCLLNNFYPREAKVQWKVDNALQSGNSQESVTEQDSKDSTYSLSSTLTLSKADYEKHKVYACEVTHQGLSSPVTKSFNRGEC
notes: Heterodimerized IgG1 antibody; alteration in the GpH7-B3 chain only; also called He Ab
B2: GpH7-B3 variant K334_01G/GpL16-k0 (antibody, human IgG1, kappa)
heavy: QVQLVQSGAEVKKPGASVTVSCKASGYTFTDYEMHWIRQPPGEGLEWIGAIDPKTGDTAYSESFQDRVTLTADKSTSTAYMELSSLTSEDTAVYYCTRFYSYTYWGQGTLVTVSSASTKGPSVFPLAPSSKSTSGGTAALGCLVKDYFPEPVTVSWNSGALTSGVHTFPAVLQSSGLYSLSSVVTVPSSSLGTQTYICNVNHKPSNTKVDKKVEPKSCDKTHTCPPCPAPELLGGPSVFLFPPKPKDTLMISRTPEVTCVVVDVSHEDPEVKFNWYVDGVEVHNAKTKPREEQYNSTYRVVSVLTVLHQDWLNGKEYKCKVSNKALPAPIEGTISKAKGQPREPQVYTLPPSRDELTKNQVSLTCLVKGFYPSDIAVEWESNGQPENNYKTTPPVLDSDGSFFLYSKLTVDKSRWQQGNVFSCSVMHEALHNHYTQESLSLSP
light: B1 light
notes: Alteration in both H chains; also called Ho Ab K334_01G
B3: GpH7-A5/GpH7-B3 variant N325_02A/GpL16-k0 (antibody, human IgG1, kappa)
heavy 1: not shown
heavy 2: not shown
light: B1 light
notes: as for B1
B4: GpH7-A5/GpH7-B3 variant Y296_11K/GpL16-k0 (antibody, human IgG1, kappa)
heavy 1: not shown
heavy 2: not shown
light: B1 light
notes: as for B1
B5: GpH7-A5/GpH7-B3 variant Y296_14T/GpL16-k0 (antibody, human IgG1, kappa)
heavy 1: not shown
heavy 2: not shown
light: B1 light
notes: as for B1
B6: GpH7-A5/GpH7-B3 variant N325_05P/GpL16-k0 (antibody, human IgG1, kappa)
heavy 1: not shown
heavy 2: not shown
light: B1 light
notes: as for B1
B7: GpH7-A5/GpH7-B3 variant N325_09D/GpL16-k0 (antibody, human IgG1, kappa)
heavy 1: not shown
heavy 2: not shown
light: B1 light
notes: as for B1
B8: GpH7-A5/GpH7-B3 variant N325_13S/GpL16-k0 (antibody, human IgG1, kappa)
heavy 1: not shown
heavy 2: not shown
light: B1 light
notes: as for B1
B9: GpH7-A5/GpH7-B3 variant N325_11K/GpL16-k0 (antibody, human IgG1, kappa)
heavy 1: not shown
heavy 2: not shown
light: B1 light
notes: as for B1
B10: GpH7-B3 variant I336_16H/GpL16-k0 (antibody, human IgG1, kappa)
heavy: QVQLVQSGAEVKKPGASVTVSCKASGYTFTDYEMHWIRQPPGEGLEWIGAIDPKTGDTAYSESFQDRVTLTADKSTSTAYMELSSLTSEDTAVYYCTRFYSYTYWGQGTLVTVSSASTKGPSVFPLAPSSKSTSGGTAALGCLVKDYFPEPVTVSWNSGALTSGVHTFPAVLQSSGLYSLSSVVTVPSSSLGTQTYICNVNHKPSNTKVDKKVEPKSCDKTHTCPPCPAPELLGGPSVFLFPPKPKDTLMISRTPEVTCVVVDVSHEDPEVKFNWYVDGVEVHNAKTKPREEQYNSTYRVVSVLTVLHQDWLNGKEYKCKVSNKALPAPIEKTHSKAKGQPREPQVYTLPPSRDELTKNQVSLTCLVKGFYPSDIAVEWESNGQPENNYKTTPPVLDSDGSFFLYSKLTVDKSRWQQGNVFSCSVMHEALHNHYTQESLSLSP
light: B1 light
notes: Alteration in both H chains; also called Ho Ab I336_16H
B11: GpH7-A5/GpH7-B3 variant N325_10E/GpL16-k0 (antibody, human IgG1, kappa)
heavy 1: not shown
heavy 2: not shown
light: B1 light
notes: as for B1
B12: GpH7-A5/GpH7-B3 variant S298_05P/GpL16-k0 (antibody, human IgG1, kappa)
heavy 1: not shown
heavy 2: not shown
light: B1 light
notes: as for B1
B13: GpH7-A5/GpH7-B3 variant S324_05P/GpL16-k0 (antibody, human IgG1, kappa)
heavy 1: not shown
heavy 2: not shown
light: B1 light
notes: as for B1
B14: GpH7-B3 variant K326_06M/GpL16-k0 (antibody, human IgG1, kappa)
heavy: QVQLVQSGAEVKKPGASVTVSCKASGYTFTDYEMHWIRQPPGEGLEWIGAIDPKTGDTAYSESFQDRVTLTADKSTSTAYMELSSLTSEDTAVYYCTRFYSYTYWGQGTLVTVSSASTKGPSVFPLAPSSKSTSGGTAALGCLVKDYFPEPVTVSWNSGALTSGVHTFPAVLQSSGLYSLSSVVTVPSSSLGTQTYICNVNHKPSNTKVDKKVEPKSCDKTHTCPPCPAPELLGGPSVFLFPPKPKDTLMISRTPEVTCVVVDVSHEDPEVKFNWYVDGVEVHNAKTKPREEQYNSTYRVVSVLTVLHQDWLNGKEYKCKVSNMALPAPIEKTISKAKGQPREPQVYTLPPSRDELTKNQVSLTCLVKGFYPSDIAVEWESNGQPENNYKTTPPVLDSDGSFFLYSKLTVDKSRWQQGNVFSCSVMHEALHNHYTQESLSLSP
light: B1 light
notes: Alteration in both H chains; also called Ho Ab K326_06M
B15: GpH7-A5/GpH7-B3 variant N325_19Q/GpL16-k0 (antibody, human IgG1, kappa)
heavy 1: not shown
heavy 2: not shown
light: B1 light
notes: as for B1
B16: GpH7-A5/GpH7-B3 variant P271_09D/GpL16-k0 (antibody, human IgG1, kappa)
heavy 1: not shown
heavy 2: not shown
light: B1 light
notes: as for B1
B17: GpH7-A5/GpH7-B3 variant N325_04F/GpL16-k0 (antibody, human IgG1, kappa)
heavy 1: not shown
heavy 2: not shown
light: B1 light
notes: as for B1
B18: GpH7-A5/GpH7-B3 variant P271_14T/GpL16-k0 (antibody, human IgG1, kappa)
heavy 1: not shown
heavy 2: not shown
light: B1 light
notes: as for B1
B19: GpH7-B3 variant K326_03V/GpL16-k0 (antibody, human IgG1, kappa)
heavy: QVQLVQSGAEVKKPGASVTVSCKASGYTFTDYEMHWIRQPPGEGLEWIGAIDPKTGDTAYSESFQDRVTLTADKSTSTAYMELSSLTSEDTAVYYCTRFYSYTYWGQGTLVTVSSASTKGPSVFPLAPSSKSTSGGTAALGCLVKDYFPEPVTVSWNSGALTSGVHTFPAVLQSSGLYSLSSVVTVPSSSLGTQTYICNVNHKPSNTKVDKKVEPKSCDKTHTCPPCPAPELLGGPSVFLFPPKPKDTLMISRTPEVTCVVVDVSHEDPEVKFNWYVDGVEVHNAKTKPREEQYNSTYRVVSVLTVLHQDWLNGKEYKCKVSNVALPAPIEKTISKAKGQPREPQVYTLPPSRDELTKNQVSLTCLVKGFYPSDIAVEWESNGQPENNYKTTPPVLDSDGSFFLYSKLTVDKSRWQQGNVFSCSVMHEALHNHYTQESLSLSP
light: B1 light
notes: Alteration in both H chains; also called Ho Ab K326_03V
B20: GpH7-A5/GpH7-B3 variant S298_08L/GpL16-k0 (antibody, human IgG1, kappa)
heavy 1: not shown
heavy 2: not shown
light: B1 light
notes: as for B1
B21: GpH7-A5/GpH7-B3 variant N325_20W/GpL16-k0 (antibody, human IgG1, kappa)
heavy 1: not shown
heavy 2: not shown
light: B1 light
notes: as for B1
B22: GpH7-A5/GpH7-B3 variant Y296_16H/GpL16-k0 (antibody, human IgG1, kappa)
heavy 1: not shown
heavy 2: not shown
light: B1 light
notes: as for B1
B23: GpH7-A5/GpH7-B3 variant Y296_01G/GpL16-k0 (antibody, human IgG1, kappa)
heavy 1: not shown
heavy 2: not shown
light: B1 light
notes: as for B1
B24: GpH7-B3 variant I336_15Y/GpL16-k0 (antibody, human IgG1, kappa)
heavy: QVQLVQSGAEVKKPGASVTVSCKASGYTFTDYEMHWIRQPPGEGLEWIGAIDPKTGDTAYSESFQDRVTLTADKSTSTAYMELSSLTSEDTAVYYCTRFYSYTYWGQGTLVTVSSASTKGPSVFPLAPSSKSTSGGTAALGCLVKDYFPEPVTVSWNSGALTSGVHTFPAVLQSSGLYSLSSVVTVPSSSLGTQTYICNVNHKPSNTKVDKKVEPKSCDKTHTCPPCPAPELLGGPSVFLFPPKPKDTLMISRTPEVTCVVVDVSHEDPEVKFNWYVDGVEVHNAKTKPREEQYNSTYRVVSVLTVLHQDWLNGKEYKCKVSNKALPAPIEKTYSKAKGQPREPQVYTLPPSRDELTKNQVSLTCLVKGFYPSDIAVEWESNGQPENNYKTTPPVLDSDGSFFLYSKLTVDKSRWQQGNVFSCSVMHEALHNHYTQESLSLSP
light: B1 light
notes: Alteration in both H chains; also called Ho Ab I336_15Y
B25: GpH7-A5/GpH7-B3 variant N325_14T/GpL16-k0 (antibody, human IgG1, kappa)
heavy 1: not shown
heavy 2: not shown
light: B1 light
notes: as for B1
B26: GpH7-A5/GpH7-B3 variant N325_15Y/GpL16-k0 (antibody, human IgG1, kappa)
heavy 1: not shown
heavy 2: not shown
light: B1 light
notes: as for B1
B27: GpH7-A5/GpH7-B3 variant N325_08L/GpL16-k0 (antibody, human IgG1, kappa)
heavy 1: not shown
heavy 2: not shown
light: B1 light
notes: as for B1
B28: GpH7-A5/GpH7-B3 variant Y296_18N/GpL16-k0 (antibody, human IgG1, kappa)
heavy 1: not shown
heavy 2: not shown
light: B1 light
notes: as for B1
B29: GpH7-B3 variant K326_04F/GpL16-k0 (antibody, human IgG1, kappa)
heavy: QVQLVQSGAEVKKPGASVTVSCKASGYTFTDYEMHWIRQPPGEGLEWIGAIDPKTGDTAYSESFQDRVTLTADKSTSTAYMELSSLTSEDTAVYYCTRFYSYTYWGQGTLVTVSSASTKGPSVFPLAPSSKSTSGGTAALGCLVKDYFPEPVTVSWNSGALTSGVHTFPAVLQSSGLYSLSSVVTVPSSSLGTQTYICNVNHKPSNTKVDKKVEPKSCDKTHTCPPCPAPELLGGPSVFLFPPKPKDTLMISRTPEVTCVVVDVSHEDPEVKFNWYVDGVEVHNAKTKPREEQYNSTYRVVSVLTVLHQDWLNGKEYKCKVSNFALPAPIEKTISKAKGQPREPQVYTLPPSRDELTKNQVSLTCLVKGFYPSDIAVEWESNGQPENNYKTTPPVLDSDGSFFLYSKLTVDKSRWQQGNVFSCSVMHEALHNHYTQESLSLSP
light: B1 light
notes: Alteration in both H chains; also called Ho Ab K326_04F
B30: GpH7-A5/GpH7-B3 variant N325_07I/GpL16-k0 (antibody, human IgG1, kappa)
heavy 1: not shown
heavy 2: not shown
light: B1 light
notes: as for B1
B31: GpH7-A5/GpH7-B3 variant N325_06M/GpL16-k0 (antibody, human IgG1, kappa)
heavy 1: not shown
heavy 2: not shown
light: B1 light
notes: as for B1
B32: GpH7-A5/GpH7-B3 variant N325_03V/GpL16-k0 (antibody, human IgG1, kappa)
heavy 1: not shown
heavy 2: not shown
light: B1 light
notes: as for B1
B33: GpH7-A5/GpH7-B3 variant Y300_10E/GpL16-k0 (antibody, human IgG1, kappa)
heavy 1: not shown
heavy 2: not shown
light: B1 light
notes: as for B1
B34: GpH7-A5/GpH7-B3 variant Y296_13S/GpL16-k0 (antibody, human IgG1, kappa)
heavy 1: not shown
heavy 2: not shown
light: B1 light
notes: as for B1

How the values were obtained:
[1] = target: T2, FcγRIIIa extracellular domain with C-terminal His tag (human, UniProt P08637 17-208); assay: SPR (Biacore); He/Con_3a divided by He/Con_2b (FcγRIIb)
T2 construct: extracellular domain; also called FcgRIIIa; 3a; not shown: His tag at the C terminus
T2 sequence (P08637 17-208): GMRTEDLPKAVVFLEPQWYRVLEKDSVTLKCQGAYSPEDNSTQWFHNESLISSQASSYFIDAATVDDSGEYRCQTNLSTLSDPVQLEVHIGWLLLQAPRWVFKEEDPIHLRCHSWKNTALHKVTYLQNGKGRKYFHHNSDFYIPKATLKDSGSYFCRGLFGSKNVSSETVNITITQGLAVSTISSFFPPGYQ

[2] = target: T1, FcγRIIb extracellular domain with …; assay: SPR (Biacore), FcγR as analyte over captured antibody; GpH7-A5/GpH7-B3/GpL16-k0 = 100
Experimental: (§1) The heterodimerized antibodies He Abs in which one of the H chains was introduced with an alteration were assayed for their binding activities to each activating FcγR and inhibitory FcγR according to the method described in Example 4. […] The activating FcγRs in FIGS. 26, 27, 28, and 29 are FcγRIa, FcγRIIa (R), FcγRIIa (H), and FcγRIIIa, respectively.
(§2) Analysis of interaction between objective antibody and the FcγR was carried out using Biacore T100 (GE Healthcare). HBS-EP+ (GE Healthcare) was used as the running buffer, and the measurement temperature was set to 25° C. Chips produced by immobilizing the antigen peptide by the amine coupling method to a Series S Sencor Chip CM5 (GE Healthcare), or alternatively, chips produced by allowing preliminarily biotinylated antigen peptides to interact with and immobilize onto a Series S Sensor Chip SA (certified) (GE Healthcare) were used. Antibodies of interest were captured onto an antigen peptide-immobilized chip, and allowed to interact to each FcγR diluted with running buffer. To regenerate and repeatedly use the chip, the antibodies captured on the chip were washed off by reacting 10 mM glycine-HCl, pH 1.5.

[3] = target: T2, FcγRIIIa extracellular domain with …; assay: as above
Experimental: as §1, §2

[4] = target: T3, FcγRIa (human, UniProt P12314 16-292); assay: SPR (Biacore), relative binding; control HoCon Ab GpH7-B3/GpL16-k0
T3 construct: extracellular domain; also called FcgRI; FcgRIa; not shown: His tag attached to the C terminus
T3 sequence (P12314 16-292): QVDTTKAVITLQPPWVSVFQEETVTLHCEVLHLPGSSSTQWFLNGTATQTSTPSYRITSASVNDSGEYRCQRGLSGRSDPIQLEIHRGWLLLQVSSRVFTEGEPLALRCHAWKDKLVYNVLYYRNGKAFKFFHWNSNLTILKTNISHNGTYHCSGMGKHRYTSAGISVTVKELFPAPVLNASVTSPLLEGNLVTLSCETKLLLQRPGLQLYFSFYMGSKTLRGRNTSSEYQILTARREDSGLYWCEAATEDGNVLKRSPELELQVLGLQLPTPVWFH

Binder	He_3a/2b (IIIa/IIb) [1] [ratio]	He/Con_2b [2]	He/Con_3a [3]	Ho/Con_1a [4]
B1	0.62	65.1 % of control	40.5 % of control	
B2				106 % of control (=100)
B3	0.47	64.4 % of control	30.5 % of control	
B4	0.78	72.8 % of control	56.7 % of control	
B5	0.73	88.2 % of control	64.5 % of control	
B6	0.39	26 % of control	10.2 % of control	
B7	0.39	124 % of control	48 % of control	
B8	0.37	177 % of control	65.1 % of control	
B9	0.5	10.4 % of control	5.2 % of control	
B10				114 % of control (=100)
B11	0.4	95.9 % of control	38.2 % of control	
B12	0.69	11.9 % of control	8.2 % of control	
B13	0.69	94.7 % of control	65.5 % of control	
B14				104 % of control (=100)
B15	0.46	69.1 % of control	31.6 % of control	
B16	0.77	120 % of control	93.1 % of control	
B17	0.14	143 % of control	20.7 % of control	

Binder	He_3a/2b (IIIa/IIb) [1] [ratio]	He/Con_2b [2]	He/Con_3a [3]	Ho/Con_1a [4]
B18	0.59	95.4 % of control	56.4 % of control	
B19				103 % of control (=100)
B20	0.68	108 % of control	73.5 % of control	
B21	0.19	169 % of control	32.8 % of control	
B22	0.8	92.2 % of control	73.4 % of control	
B23	0.69	79.3 % of control	54.5 % of control	
B24				110 % of control (=100)
B25	0.43	91.6 % of control	39.4 % of control	
B26	0.3	99.5 % of control	29.5 % of control	
B27	0.17	197 % of control	33.3 % of control	
B28	0.79	91.5 % of control	72.1 % of control	
B29				102 % of control (=100)
B30	0.17	171 % of control	28.7 % of control	
B31	0.14	217 % of control	31.4 % of control	
B32	0.27	111 % of control	30.3 % of control	
B33	0.78	134 % of control	104 % of control	
B34	0.72	86.3 % of control	61.8 % of control	
